In the supplement of paper PMC12042874:
± gives the uncertainty stated by the source.

Experiment: amyloid nucleation score (Sup35N fusion, yeast selection) (log enrichment); library NNK1; higher = more nucleation; inactive = no reads after selection
Outline: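 On medium lacking adenine and uracil, psi-negative yeast expressing peptides of 20 random codons fused to Sup35N were grown 7 days at 30°C after a 24-hour induction with 100 μM copper sulfate. Illumina sequencing of input and output plasmid inserts gave the reads, and sequences under 100 input reads were excluded. The nucleation score is the DiMSum log enrichment of output over input reads, centred on the mode score of non-aggregating sequences.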
SIRWVIHDRVSRVYDVLRCG gave an amyloid nucleation score of 0.944 ± 0.54.
Work on TVTWASGFMGGVDHCSWGQV yielded an amyloid nucleation score of 0.043 ± 0.65.
With YLRRSGMLAFSSSHHR the amyloid nucleation score was 1.15 ± 0.4.
Substance QPSGLGAECYM has an amyloid nucleation score of 0.423 ± 1.4.
IHLIDLTRVSAG gave an amyloid nucleation score of 0.627 ± 0.63.
VCFVFMS showed an amyloid nucleation score of -0.211 ± 0.41.
KDEARRGLTLCPTGKDILDY showed an amyloid nucleation score of -0.026 ± 0.47.
Work on AHYRV yielded an amyloid nucleation score of 0.014 ± 0.48.
For LYTLRLGI, the amyloid nucleation score was -0.134 ± 0.84.
In the case of TIALRMNRINLDFKYCFNSF, the amyloid nucleation score is reported as 1.49 ± 0.69.
RKRRVSSLPEMGHSGSEYIG gave an amyloid nucleation score of 0.412 ± 0.67.
Substance FLVCLFINVVTPRTYHLWVY has an amyloid nucleation score of -0.174 ± 0.49.
In the case of DNSRIYLCGSLNCFYFSDVL, the amyloid nucleation score is reported as 7.656 ± 0.074.
In the case of RSNPMTVMVSCLDEVVS, the amyloid nucleation score is reported as -0.536 ± 0.49.
In the case of NAYRYMCRCGFLSLRAGWRV, the amyloid nucleation score is reported as “inactive”.
Substance CWVYDGRIYPHL has an amyloid nucleation score of 1.05 ± 0.85.
SNLRMLNMASTSPR gave an amyloid nucleation score of -0.368 ± 0.34.
WSWRLPGPCLFFCAEEQLTK gave an amyloid nucleation score of 1.32 ± 0.84.
GPRVSPVKFIVRLGQVNLDR gave an amyloid nucleation score of 0.448 ± 0.61.
Work on WYGVFALMIGRSIFD yielded an amyloid nucleation score of -0.027 ± 0.27.
In the case of SVARFNVWVVLSSRNVTCQS, the amyloid nucleation score is reported as 1.82 ± 0.12.
YILLLFSVVWIKKFGDCSCA gave an amyloid nucleation score of -0.048 ± 0.35.
FYTAYCGLALRLVTTQPCMS showed an amyloid nucleation score of -0.001 ± 0.49.
For FFVLKGECVGGLMPWTRVTA, the amyloid nucleation score was -0.24 ± 0.92.
In the case of KLWPSMSFLNCLWCIRERQL, the amyloid nucleation score is reported as 4.48 ± 0.081.
For MVHCRQI, the amyloid nucleation score was 0.219 ± 0.32.
Substance LFSCWQSGRVNKYYVDGSMG has an amyloid nucleation score of -0.206 ± 0.97.
VDHISCCVFVMAVHMELALR gave an amyloid nucleation score of -1.07 ± 1.8.
VGMYGSVSFMS gave an amyloid nucleation score of -1.02 ± 0.89.
Work on DVISLTHVEKSWLVSLWKRS yielded an amyloid nucleation score of -0.045 ± 0.69.
DSYDTTSNRAPVMLKVNYSM showed an amyloid nucleation score of -0.692 ± 0.64.
For AQYELLMQRNWYVGKDLVRG, the amyloid nucleation score was -0.192 ± 0.42.
SVDVTRIIMIVVCRFKMWEL showed an amyloid nucleation score of 0.736 ± 0.32.
With YPVRFHTYVVISTFGEIGFG the amyloid nucleation score was 0.822 ± 0.43.
AGRMEGYESEGPPGHA showed an amyloid nucleation score of 0.187 ± 0.39.
For SCAASGNLYVSSAGGVRGKR, the amyloid nucleation score was -0.734 ± 0.46.
With MIMMDLHCGVILRALGEHGP the amyloid nucleation score was 3.34 ± 0.11.
With WTTMFAFAF the amyloid nucleation score was 1.42 ± 0.44.
RSLLHCYHNKWMSVRTAFSP gave an amyloid nucleation score of 0.642 ± 0.66.
For VILLILNYYSHWDVLLK, the amyloid nucleation score was -0.111 ± 0.4.
LAVFSNVLLYVEDMSALIRG gave an amyloid nucleation score of 0.129 ± 0.2.
Substance GQRSLT has an amyloid nucleation score of -0.088 ± 0.24.
Work on DIVATYRVRISLNPNVMVTY yielded an amyloid nucleation score of 0.466 ± 0.32.
Work on MVLFKELIMVFTQARAS yielded an amyloid nucleation score of 0.156 ± 0.28.
EIGYMGLSVSIFRCVWLFIF gave an amyloid nucleation score of 0.056 ± 0.34.
With HPQYMLPT the amyloid nucleation score was 0.569 ± 0.32.
CFQPWKNLKAY gave an amyloid nucleation score of -0.67 ± 0.68.
In the case of YKSCCVGITPM, the amyloid nucleation score is reported as -0.551 ± 0.49.
Substance NFVIFKRFFNFHKNWNGWSR has an amyloid nucleation score of 3.8 ± 0.07.
WYVLARGMYENTLVGSCSMV gave an amyloid nucleation score of 6.13 ± 0.088.
In the case of LWLTPTQCMTHNFPLLTPRR, the amyloid nucleation score is reported as -0.354 ± 0.47.
With QCDRILSDLYNCSGYNRNTK the amyloid nucleation score was -0.522 ± 0.74.
WLSETAAWENTYRCLRILHG showed an amyloid nucleation score of -0.446 ± 0.4.
HGSECSWRLLLRHPLMGTSG gave an amyloid nucleation score of -0.089 ± 0.49.
For SGWIKIFG, the amyloid nucleation score was -0.293 ± 0.66.
YFSLFYCKVSGESTLYFCGH gave an amyloid nucleation score of 5.88 ± 0.066.
HMRMGLGRLVHLWYWPTRDT gave an amyloid nucleation score of 0.153 ± 0.56.
TCRLKLVFLNVTVKSKFCVL showed an amyloid nucleation score of -0.362 ± 0.76.
LAEYHYGSMFSLNSTYYNLS showed an amyloid nucleation score of 5.91 ± 0.069.
Substance SPTVERSTGIR has an amyloid nucleation score of -0.089 ± 0.49.
With LHNERRSVISTPYRQSEAGL the amyloid nucleation score was 0.707 ± 0.43.
With TDVSVKLSVMMH the amyloid nucleation score was 1.53 ± 0.16.
For SWEQMSYASSFISNVGRHKG, the amyloid nucleation score was 1.34 ± 0.2.
For TRRVWLQCLMLSYMAVYISM, the amyloid nucleation score was 0.044 ± 1.1.
Substance NNAHRSVVWRYLVCFSCDFG has an amyloid nucleation score of 6.454 ± 0.064.
In the case of IARLHT, the amyloid nucleation score is reported as “inactive”.
For GYTKILMRHSNFCMTK, the amyloid nucleation score was 0.428 ± 0.19.
In the case of TFLEIKVRD, the amyloid nucleation score is reported as -0.496 ± 0.19.
With NDDNCSSVSWWNKWCSTR the amyloid nucleation score was 1.44 ± 0.41.
With CGRTYRGLS the amyloid nucleation score was 0.959 ± 0.72.
For TECSSSGIALMWVFWRSICT, the amyloid nucleation score was “inactive”.
With VMLPHHWSLNKNY the amyloid nucleation score was 0.264 ± 0.29.
GWFAR gave an amyloid nucleation score of -0.191 ± 0.57.
With HVVFTKMCSNTTET the amyloid nucleation score was 0.026 ± 0.49.
In the case of PRSMRKNSYGLGSGVRDHVQ, the amyloid nucleation score is reported as -0.238 ± 0.56.
For VGLDLALSYHFAQG, the amyloid nucleation score was 4.8 ± 0.087.
For YLMFFVYCVRLRYLSWALSQ, the amyloid nucleation score was -1.35 ± 1.9.
Work on LLSMLRCYWVSRLFV yielded an amyloid nucleation score of -0.079 ± 0.65.
For LIIKEFITLLSPCWELLRIR, the amyloid nucleation score was 0.901 ± 0.9.
CWMHFPYQVESDGQTNRAFD showed an amyloid nucleation score of 0.041 ± 0.34.
In the case of NDNGVMLVLCEGMY, the amyloid nucleation score is reported as 0.014 ± 0.32.
ESHSSTKGSEWLRHSHSDGV gave an amyloid nucleation score of 0.632 ± 0.39.
With ENHAKLHDICGASGLSREGG the amyloid nucleation score was 0.592 ± 0.49.
In the case of NFTSRYEANFTVFSFRAWRL, the amyloid nucleation score is reported as 0.297 ± 0.36.
VETSGVILVESWCFMLGIDV showed an amyloid nucleation score of 0.724 ± 0.75.
In the case of ARTGCHKVYLAAACSYGRFS, the amyloid nucleation score is reported as 0.188 ± 0.34.
